Measured values: patent US20170226161A1 (GlaxoSmithKline, published 2017)
“And” between values parts separate entries of the source, which are not always exact repeats. Identical values can stand only once.

T1: factor H comprising only domains 6-7 (UniProt P08603 321-443)
T1 sequence: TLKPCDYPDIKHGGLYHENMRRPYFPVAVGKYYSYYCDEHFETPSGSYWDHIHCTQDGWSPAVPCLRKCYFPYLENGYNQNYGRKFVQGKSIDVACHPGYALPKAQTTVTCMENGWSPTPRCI


Tests used:
[1] = molecular target: T1, factor H comprising only domains 6-7
[2] = molecular target: factor H full length (Calbiochem) (UniProt P08603 19-1231)
[3] = molecular target: T2, human factor H (fH), immobilised (human, UniProt P08603 19-1231); experiment: SPR (FIG. 6)
T2 construct: also called human fH
T2 sequence (P08603 19-1231): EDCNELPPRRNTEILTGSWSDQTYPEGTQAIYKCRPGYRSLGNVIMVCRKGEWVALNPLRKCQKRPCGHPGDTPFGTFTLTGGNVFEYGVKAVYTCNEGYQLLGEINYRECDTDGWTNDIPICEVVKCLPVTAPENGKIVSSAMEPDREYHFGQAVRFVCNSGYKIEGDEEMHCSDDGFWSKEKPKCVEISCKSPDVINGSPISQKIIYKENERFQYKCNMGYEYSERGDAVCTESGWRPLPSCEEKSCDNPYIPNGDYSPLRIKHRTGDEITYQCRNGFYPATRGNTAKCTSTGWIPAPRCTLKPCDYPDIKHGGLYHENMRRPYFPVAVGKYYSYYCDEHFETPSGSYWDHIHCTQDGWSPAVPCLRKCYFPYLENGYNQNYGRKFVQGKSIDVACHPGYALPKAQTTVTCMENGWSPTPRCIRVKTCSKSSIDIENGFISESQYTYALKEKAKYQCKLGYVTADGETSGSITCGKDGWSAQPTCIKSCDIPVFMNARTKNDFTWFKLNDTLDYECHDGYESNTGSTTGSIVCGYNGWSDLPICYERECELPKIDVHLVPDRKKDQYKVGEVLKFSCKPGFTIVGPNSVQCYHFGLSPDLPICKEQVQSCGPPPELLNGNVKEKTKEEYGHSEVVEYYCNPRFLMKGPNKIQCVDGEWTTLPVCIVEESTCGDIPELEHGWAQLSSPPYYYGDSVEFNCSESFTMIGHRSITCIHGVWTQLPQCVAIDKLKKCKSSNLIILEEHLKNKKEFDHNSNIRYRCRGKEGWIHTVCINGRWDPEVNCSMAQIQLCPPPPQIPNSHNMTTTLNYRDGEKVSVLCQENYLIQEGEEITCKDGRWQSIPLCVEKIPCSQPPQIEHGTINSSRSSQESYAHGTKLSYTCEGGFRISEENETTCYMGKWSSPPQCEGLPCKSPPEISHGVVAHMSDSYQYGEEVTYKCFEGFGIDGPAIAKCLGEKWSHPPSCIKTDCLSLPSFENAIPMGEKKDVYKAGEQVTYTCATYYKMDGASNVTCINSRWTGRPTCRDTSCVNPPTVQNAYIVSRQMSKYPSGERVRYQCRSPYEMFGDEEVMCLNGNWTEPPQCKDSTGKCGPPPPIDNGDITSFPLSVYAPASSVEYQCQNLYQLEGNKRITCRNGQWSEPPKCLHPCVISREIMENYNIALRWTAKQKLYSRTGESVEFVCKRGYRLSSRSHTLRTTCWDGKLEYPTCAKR

factor H full length (Calbiochem), sequence (P08603 19-1231): as above

| Binder | Kd [1] | Ration KD wt/x (residual binding) [1] | koff [1] [s⁻¹] | kon [1] [M⁻¹ s⁻¹] | Kd [2] [µM] | Ration KD wt/x (residual binding) [2] | koff [2] [s⁻¹] | kon [2] [M⁻¹ s⁻¹] | fold reduction of the SPR peak against wild-type v3 [3] [fold] |
| --- | --- | --- | --- | --- | --- | --- | --- | --- | --- |
| 231 S fusion polypeptide (v2-v3-v1 fHbp, stabilised) (other) MGPDSDRLQQRRVAADIGAGLADALTAPLDHKDKSLQSLTLDQVVRKNEKLKLAAQGAEKTYGNGDSLNTGKLKNDKVSRFDFIRQIEVDGQLITLESGEFQIYKQDHSAVVALQIEKINNPDKIDSLINQRSFRVSGLGGEHTAFNQLPDGKAEYHGKAFSSDDAGGKLTYTIDFAAKQGHGKIEHLKTPEQNVELAAAELKADEKSHAVILGDTRYGSEEKGTYHLALFGDRAQEIAGSATVKIGEKVHEIGIAGKQGSGGGGVAADIGTGLADALTAPLDHKDKGLKSLTLEDVIPQNGTLTLSAQGAEKTFKAGDKDNSLNTGKLKNDKISRFDFVQKIEVDGQTITLASGEFQIYKQNHSAVVALQIEKINNPDKTDSLINQRSFRVSGLGGEHTAFNQLPGGKAEYHGKAFSSDDPNGRLHYSIDFTKKQGYGRIEHLKTLEQNVELAAAELKADEKSHAVILGDTRYGSEEKGTYHLALFGDRAQEIAGSATVKIGEKVHEIGIAGKQGSGGGGVAADIGAGLADALTAPLDHKDKGLQSLTLDQSVSKNEKLKLAAQGAEKTYGNGDSLNTGKLKNDKVSRFDFIRQIEVDGQLITLESGEFQVYKQSHSALTAFQTEQIQDSEHSGKMVAKRQFRIGDIAGEHTSFDKLPEGGRATYRGTAFGSDDAGGKLTYTIDFAAKQGNGKIEHLKSPELNVDLAAADIKPDGKRHAVISGSVLYNQAEKGSYSLGIFGGKAQEVAGSAEVKTVNGIRHIGLAAKQ | 158 nM and 280 nM | 0.076 | 0.11 | 710000 | 3.1 | 0.1 | 0.064 | 21000 |  |
| v3 fHbp with S32V (SEQ ID NO: 17 numbering) (other) VAADIGTGLADALTAPLDHKDKGLKSLTLEDVIPQNGTLTLSAQGAEKTFKAGDKDNSLNTGKLKNDKISRFDFVQKIEVDGQTITLASGEFQIYKQNHSAVVALQIEKINNPDKTDSLINQRSFLVSGLGGEHTAFNQLPGGKAEYHGKAFSSDDPNGRLHYSIDFTKKQGYGRIEHLKTLEQNVELAAAELKADEKSHAVILGDTRYGSEEKGTYHLALFGDRAQEIAGSATVKIGEKVHEIGIAGKQ |  |  |  |  |  |  |  |  | ~2 |
